The text below walks through data of patent US20240239878A1 (SHANGHAI QILU PHARMACEUTICAL RESEARCH AND DEVELOPMENT CENTRE, published 2024).

Assay [1] concerns the target T1, human DLL3 on SHP-77 cells (human, UniProt Q9NYJ7 27-618).
T1 construct: also called DLL3-expressing cells (SHP-77)
T1 sequence: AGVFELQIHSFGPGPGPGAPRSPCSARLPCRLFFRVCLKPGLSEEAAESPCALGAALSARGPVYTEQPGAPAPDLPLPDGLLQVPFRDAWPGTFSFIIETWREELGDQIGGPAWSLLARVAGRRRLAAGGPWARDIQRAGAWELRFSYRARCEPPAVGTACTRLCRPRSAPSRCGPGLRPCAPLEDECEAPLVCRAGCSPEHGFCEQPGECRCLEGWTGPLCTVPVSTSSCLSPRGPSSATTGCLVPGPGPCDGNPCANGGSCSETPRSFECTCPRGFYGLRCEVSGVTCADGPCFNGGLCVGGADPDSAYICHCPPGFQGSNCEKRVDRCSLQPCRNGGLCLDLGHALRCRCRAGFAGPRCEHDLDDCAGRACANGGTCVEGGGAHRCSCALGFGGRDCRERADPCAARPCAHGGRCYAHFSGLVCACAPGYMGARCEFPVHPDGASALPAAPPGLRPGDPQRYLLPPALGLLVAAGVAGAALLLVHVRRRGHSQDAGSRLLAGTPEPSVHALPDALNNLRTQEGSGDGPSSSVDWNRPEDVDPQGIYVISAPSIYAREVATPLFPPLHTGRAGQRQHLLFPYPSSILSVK
As to the kind of experiment: flow cytometry, SHP-77 cells. As for the experimental part:
Monoclonal selection was performed, and the expression level of DLL3 protein in the monoclonal cells were identified by flow cytometry. The culture was expanded and stored in storage for later use. SHP-77 and HEK293-cyno DLL3 cells were cultured. The culture medium for SHP-77 cells were RPMI1640+10% FBS, and the culture medium for HEK293 cyno DLL3 cells were DMEM+10% FBS+200 μg/ml Hygromycin. The cells were cultured in a T75 cell culture flask at a 37° ° C. in a 5% CO₂ incubator. When using cells, they are washed with sterile DPBS, digested with 0.25% trypsin EDTA for about 5 minutes, and then stopped with a complete medium.
The digested cells were centrifuged at 1000 rpm for 5 min at room temperature. The supernatant was discarded and the cells were resuspended in 100 μL of 1% BSA (in PBS). The cells were counted and adjusted to a cell density of 1E6/m. The dilute cells were seeded in a 96-well round-bottom culture plate (corning 3799), and centrifuged at 1500 rpm for 5 min at 4° C. The supernatant was discarded and the cells were stored at 4° C. until use. Antibody samples to be tested were diluted with 1% BSA (in PBS) at a starting concentration of 100 nM, downwards by a 10-fold gradient for 7 concentrations. The cells were resuspended with the diluted antibody at 100 μL/well and incubated for 1 hour at 4° C. The cells were centrifuged at 1500 rpm for 5 minutes at 4° C. and the supernatant was discarded. The cells were resuspended and washed with 160 μL of 1% BSA (in PBS), centrifuged at 1500 rpm for 5 minutes at 4° C. The supernatant was discarded. The secondary antibody (goat anti human IgG Fc PE) was diluted 1:200 with 1% BSA (in PBS) according to the manufacturer's instructions and the cells were resuspended with the diluted secondary antibody. 100 μL/well, and incubated for 0.5 h at 4° C. The cells were centrifuged at 1500 rpm for 5 minutes at 4° C. and the supernatant was discarded. The cells were resuspended and washed with 160 μL of 1% BSA (in PBS), centrifuged at 1500 rpm for 5 minutes at 4° C. The supernatant was discarded. The cells were resuspended in 100 μL of 1% BSA (in PBS), and filtered across a 300 mesh gauze. The mean fluorescence intensity of the PE channels was measured by flow cytometry.

For assay [2], the target named is T2, human DLL4 (Sino Biological, Cat. No. 10171-H08H) (human, UniProt Q9NR61 27-529).
T2 construct: also called family protein DLL4
T2 sequence (Q9NR61 27-529 limits assumed): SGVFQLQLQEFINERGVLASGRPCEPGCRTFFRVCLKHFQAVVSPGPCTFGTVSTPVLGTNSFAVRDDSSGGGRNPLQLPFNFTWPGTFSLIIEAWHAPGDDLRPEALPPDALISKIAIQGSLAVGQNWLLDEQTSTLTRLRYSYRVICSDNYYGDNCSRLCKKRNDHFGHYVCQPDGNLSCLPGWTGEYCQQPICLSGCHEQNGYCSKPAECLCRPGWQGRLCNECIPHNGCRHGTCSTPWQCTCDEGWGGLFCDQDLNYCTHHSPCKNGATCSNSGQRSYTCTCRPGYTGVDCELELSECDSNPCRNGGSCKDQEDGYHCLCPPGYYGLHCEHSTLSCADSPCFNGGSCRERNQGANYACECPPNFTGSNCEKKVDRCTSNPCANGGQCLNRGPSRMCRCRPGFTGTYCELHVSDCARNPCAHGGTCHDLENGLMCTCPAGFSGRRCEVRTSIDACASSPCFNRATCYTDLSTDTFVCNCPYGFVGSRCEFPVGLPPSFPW
The experiment in a line: ELISA, plate coated with human DLL4 at 1 ug/mL, OD 450nm. How it is done: (§1) The antigen was washed three times with PBST, 300 μL/well. The antigen was blocked with 1% BSA (in PBST), 200 μL/well, and incubated at 37° C. for 1.5 hours.
(§2) Antibodies to be tested were diluted with 1% BSA (in PBS) at a starting concentration of 100 nM, downwards by a 10-fold gradient for 7 concentrations. The plates were washed three times with PBST, 300 μL/well. The diluted antibody was added to an ELISA plate at 100 μL/well and incubated at room temperature for 2 hours. The antibodies were washed three times with PBST, 300 μL/well. The secondary antibodies (goat anti-human IgG Fc for DLL4 (HRP), 1:20000 dilution: HRP goat anti-mouse IgG (H+L) for DLL1, 1:10000 dilution) were diluted with 1% BSA in PBST. The diluted secondary antibodies were added to the ELISA plate at 100 μL/well and incubated at room temperature for 1 hour. The plates were washed 6 times with PBST, 300 μL/well. The developing solution (TMA and TMB 1:1 mixed) was prepared. The developing solution was added to the plate, 100 μL/well, and incubated in the dark for 5 min. 50 μL of ELISA stop solution was added to the plate and shaken well.
(§3) OD450s were read on the envision and plotted on the GraphPad for EC₅₀ values.
For orientation: An ELISA detects its analyte on a solid surface through an enzyme-linked reagent.

The target of assay [3] is T3, human DLL1 (Sino Biological, Cat. No. 11635-H08H) (human, UniProt O00548 18-545).
T3 construct: also called family protein DLL1
T3 sequence: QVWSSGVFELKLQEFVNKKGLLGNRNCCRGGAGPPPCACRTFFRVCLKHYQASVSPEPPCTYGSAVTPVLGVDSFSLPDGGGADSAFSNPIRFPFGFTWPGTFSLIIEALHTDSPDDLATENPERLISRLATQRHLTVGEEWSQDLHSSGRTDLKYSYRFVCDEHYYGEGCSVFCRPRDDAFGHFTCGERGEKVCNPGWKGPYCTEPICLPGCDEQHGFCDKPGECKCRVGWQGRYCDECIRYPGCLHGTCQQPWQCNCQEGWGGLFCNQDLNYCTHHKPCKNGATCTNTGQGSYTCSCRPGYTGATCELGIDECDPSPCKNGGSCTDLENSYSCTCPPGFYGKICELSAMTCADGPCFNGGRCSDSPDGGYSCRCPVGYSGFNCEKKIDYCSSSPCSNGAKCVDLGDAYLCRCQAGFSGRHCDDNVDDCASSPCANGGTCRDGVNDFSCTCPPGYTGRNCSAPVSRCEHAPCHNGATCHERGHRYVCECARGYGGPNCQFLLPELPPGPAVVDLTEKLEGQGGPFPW
The experiment in a line: ELISA, plate coated with human DLL1 at 1 ug/mL, OD 450nm. How it is done:
as §1, §2, §3

By EC50 is commonly meant the concentration needed to bring the measured effect to its halfway point. Low readings indicate greater potency, high ones weaker potency.

Substitutions are numbered along the chain they refer to.

B1: DLL3-3 camelid-derived anti-DLL3 chimeric antibody (antibody, human IgG1, V domains shown)
VH: DVQLVESGGGSVQAGGSLKLSCKSPTYTISSGYMGWFRQAPGKEREGVAAIYIGGSTTLYADSVKGRFTISADNAEKTVYLQMNTLKPEDSAMYYCAAQLRPNSAYHPLDGRKYNYWGQGTQVTVSS
Take B1: in assay [1], the EC50 is 0.047 nM and the “Top MFI” value turned out to be 874 MFI.

B2: DLL3-122 camelid-derived anti-DLL3 chimeric antibody (antibody, human IgG1, V domains shown)
VH: QVQLVESGGGSVQAGGSLRLSCTASGDTYRSYCMGWFRKAPGKEREGVADIVSDGSTSYADSVKGRFTISKDNAKNTLYLQMNSLKPEDTAMYYCAVDRGGSGGYCYTGRYDYWGQGTQVTVSS
For B2, in assay [1], the response was half-maximal at 0.427 nM (EC50) and the “Top MFI” value is 846 MFI.

B3: hDLL3-122 camelid-derived humanized anti-DLL3 antibody (antibody, V domains shown)
VH: EVQLVESGGGLVQPGGSLRLSCAASGDTYRSYCMGWFRQAPGKEREGVADIVSDGSTSYADSVKGRFTISRDNSKNTLYLQMNSLRAEDTAVYYCAVDRGGSGGYCYTGRYDYWGQGTLVTVSS
Turning to B3, the binding result in assay [2] and in assay [3] was “no binding (tested: 100 nM)” each time.

B4: hDLL3-3-1 camelid-derived humanized anti-DLL3 antibody (antibody, human IgG1, V domains shown)
VH: EVQLVESGGGLVQPGGSLRLSCAASTYTISSGYMGWFRQAPGKEREGVAAIYIGGSTTLYADSVKGRFTISRDNSKNTLYLQMNSLRAEDTAVYYCAAQLRPNSAYHPLDGRKYNYWGQGTLVTVSS
Consider B4, for which the binding result in assay [2] and in assay [3] was “no binding (tested: 100 nM)” in each case.

B5: hDLL3-3-2 camelid-derived humanized anti-DLL3 antibody (antibody, V domains shown)
VH: B4 VH with A23K, A24S, S25P
For B5, the binding result in assay [2] and in assay [3] was “no binding (tested: 100 nM)” in each case.

B6: DLL3-26 camelid-derived anti-DLL3 chimeric antibody (antibody, human IgG1, V domains shown)
VH: QVQLVESGGGSVQAGGSLRLSCAASGDIYSSSYVGWFRQAPGKEREGVAIIYTSGDSTYYANSVKGRFTISQDKAKKTLYLQMNSLKPEDTAMYYCAARFAIDNSNYWGQGTQVTVSS
With B6, in assay [1], the EC50 was 0.519 nM and the “Top MFI” value was found to be 821 MFI.

B7: hDLL3-26 camelid-derived humanized anti-DLL3 antibody (antibody, V domains shown)
VH: EVQLVESGGGLVQPGGSLRLSCAASGDIYSSSYVGWFRQAPGKEREGVAIIYTSGDSTYYADSVKGRFTISRDNSKNTLYLQMNSLRAEDTAVYYCAARFAIDNSNYWGQGTLVTVSS
For B7, the binding result in assay [2] and in assay [3] was “no binding (tested: 100 nM)” in each case.
